Results on four proteins are retold here after article PMC3818340.

Substrate in series [1]: CC#CC(=O)C(=O)O
Briefly: purified protein. It counts as biochemical, Pseudomonas pavonaceae. The note with it: 20 mM sodium phosphate buffer, pH 9.0, 24 °C.

Substrate in series [2]: CC#CC(=O)C(=O)O
Kind of series: purified protein. It is filed as biochemical, coryneform bacterium. The conditions noted are these: 20 mM sodium phosphate buffer, pH 9.0, 24 °C.

B1: Pp MSAD (Pseudomonas pavonaceae) (protein)
chain: PLLKFDIFYGRTDAQIKSLLDAAHGAMVDAFGVPANDRYQTVSQHRPGEMVLEDTGLGYGRSSAVVLLTVISRPRSEEQKVCFYKLLTGALERDCGISPDDVIVALVENSDADWSFGRGRAEFLTGDLV
With B1, in series [1], the Michaelis constant (Km) is 3 ± 1.2 mM, the catalytic constant (kcat) amounted to 3.4 ± 0.8 s⁻¹ and the kcat/Km is 1130 M⁻¹ s⁻¹.

B2: FG41 MSAD (coryneform bacterium) (protein)
chain: PLIRIDLTSDRSREQRRAIADAVHDALVEVLAIPARDRFQILTAHDPSDIIAEDAGLGFQRSPSVVIIHVFTQAGRTIETKQRVFAAITESLAPIGVAGSDVFIAITENAPHDWSFGFGSAQYVTGELAIPATGAA
B2: in series [2], the Km amounted to 7.3 ± 0.8 mM, the kcat was found to be 0.17 ± 0.01 s⁻¹ and the catalytic efficiency (kcat/Km) amounted to 20 M⁻¹ s⁻¹.

B3: FG41 MSAD (coryneform bacterium; Q73R) (protein)
chain: PLIRIDLTSDRSREQRRAIADAVHDALVEVLAIPARDRFQILTAHDPSDIIAEDAGLGFQRSPSVVIIHVFTRAGRTIETKQRVFAAITESLAPIGVAGSDVFIAITENAPHDWSFGFGSAQYVTGELAIPATGAA
Turning to B3, in series [2], the Km came to 6.6 ± 1.5 mM, the kcat turned out to be 1.2 ± 0.2 s⁻¹ and the catalytic efficiency (kcat/Km) stood at 180 M⁻¹ s⁻¹.

B4: FG41 MSAD (coryneform bacterium; Y123F) (protein)
chain: PLIRIDLTSDRSREQRRAIADAVHDALVEVLAIPARDRFQILTAHDPSDIIAEDAGLGFQRSPSVVIIHVFTQAGRTIETKQRVFAAITESLAPIGVAGSDVFIAITENAPHDWSFGFGSAQFVTGELAIPATGAA
Consider B4, for which, in series [2], the Michaelis constant (Km) was 21 ± 5 mM, the catalytic constant (kcat) is 0.7 ± 0.1 s⁻¹ and the kcat/Km is 30 M⁻¹ s⁻¹.
